Measured values from article PMC4355076 (Molecular cell, 2015).
Positions count from the first letter of the chain named. Names may count otherwise. Blank lines part the entries; values can stand above or below the binder they belong to.

Columns and labels:
[1] = biological target: T1, human UCH37 isoform 1, co-expressed with NFRKB (human, UniProt Q9Y5K5 1-329); test: cell-based or functional assay
T1 sequence (looked up): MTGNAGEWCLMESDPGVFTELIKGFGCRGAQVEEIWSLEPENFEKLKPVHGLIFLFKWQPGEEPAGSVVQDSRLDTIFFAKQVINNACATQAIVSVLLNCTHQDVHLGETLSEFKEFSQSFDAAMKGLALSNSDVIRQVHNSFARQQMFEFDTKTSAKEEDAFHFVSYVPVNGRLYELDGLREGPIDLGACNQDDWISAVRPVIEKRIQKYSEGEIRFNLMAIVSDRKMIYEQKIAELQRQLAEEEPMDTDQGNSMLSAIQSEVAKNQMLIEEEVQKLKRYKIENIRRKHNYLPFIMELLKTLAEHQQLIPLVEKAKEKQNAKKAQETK

AUC = biological target: the molecule itself; test: AUC
human UCH37 isoform 2 = biological target: T2, human UCH37 isoform 2 (human, UniProt Q9Y5K5 1-329, deleting the codon for E246); test: cell-based or functional assay
T2 sequence (looked up): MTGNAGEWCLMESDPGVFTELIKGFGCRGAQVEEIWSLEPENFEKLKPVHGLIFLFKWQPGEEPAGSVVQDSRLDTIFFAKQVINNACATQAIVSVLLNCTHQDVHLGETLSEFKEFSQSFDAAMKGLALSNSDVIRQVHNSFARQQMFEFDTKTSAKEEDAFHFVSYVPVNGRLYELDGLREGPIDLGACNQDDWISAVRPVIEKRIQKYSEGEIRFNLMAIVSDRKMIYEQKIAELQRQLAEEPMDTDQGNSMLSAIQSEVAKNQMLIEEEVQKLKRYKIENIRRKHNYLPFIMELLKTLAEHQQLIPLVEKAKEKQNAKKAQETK

UCH37(M148A,F149A) = biological target: T3, UCH37(M148A,F149A) (human, UniProt Q9Y5K5 1-329, M148A | F149A); test: cell-based or functional assay
T3 sequence (looked up): T1 sequence (looked up) with M148A, F149A

[2] = biological target: T4, human UCH37 (isoform 1), full-length (human, UniProt Q9Y5K5 1-329); test: cell-based or functional assay
T4 sequence (looked up): T1 sequence (looked up)

human ubiquitin = human ubiquitin (human, UniProt P0CG48 1-76); test: cell-based or functional assay

kcat of ubiquitin-AMC hydrolysis by the UCH37/NFRKB^1-117 complex [1]: 0.15 s⁻¹
kcat/Km of ubiquitin-AMC hydrolysis by the UCH37/NFRKB^1-117 complex [1]: 0.005 s^−1μM^−1
B1: NFRKB^1-117 (domain or fragment, human, UniProt Q6P4R8 1-117, looked up)
chain: MDSLDHMLTDPLELGPCGDGHGTRIMEDCLLGGTRVSLPEDLLEDPEIFFDVVSLSTWQEVLSDSQREHLQQFLPQFPEDSAEQQNELILALFSGENFRFGNPLHIAQKLFRDGHFN

kcat of ubiquitin-AMC hydrolysis by the UCH37/NFRKB^39-156 complex [1]: 0.25 s⁻¹
kcat/Km of ubiquitin-AMC hydrolysis by the UCH37/NFRKB^39-156 complex [1]: 0.009 s^−1μM^−1
B2: NFRKB^39-156 (domain or fragment, human, UniProt Q6P4R8 39-156, looked up)
chain: PEDLLEDPEIFFDVVSLSTWQEVLSDSQREHLQQFLPQFPEDSAEQQNELILALFSGENFRFGNPLHIAQKLFRDGHFNPEVVKYRQLCFKSQYKRYLNSQQQYFHRLLKQILASRSD

B3: UCH37(M269E,N291D) (enzyme, human, UniProt Q9Y5K5 1-329, looked up)
chain: T1 sequence (looked up) with M269E, N291D
Kd (AUC): 49 µM

kcat of ubiquitin-AMC hydrolysis by the UCH37(isoform2)/RPN13^285-407 complex (human UCH37 isoform 2): 4.7 s⁻¹
kcat/Km of ubiquitin-AMC hydrolysis by the UCH37(isoform2)/RPN13^285-407 complex (human UCH37 isoform 2): 1.4 s^−1μM^−1
kcat of ubiquitin-AMC hydrolysis by the UCH37(M148A,F149A)/RPN13^285-407 complex (UCH37(M148A,F149A)): 4.7 s⁻¹
kcat of ubiquitin-AMC hydrolysis by the UCH37/RPN13^285-407 complex [2]: 5 s⁻¹
kcat/Km of ubiquitin-AMC hydrolysis by the UCH37/RPN13^285-407 complex [2]: 1.6 s^−1μM^−1
B4: human RPN13^285-407 (domain or fragment)
chain: GSWTQVDLASVLTPEIMAPILANADVQERLLPYLPSGESLPQTADEIQNTLTSPQFQQALGMFSAALASGQLGPLMCQFGLPAEAVEAANKGDVEAFAKAMQNNAKPEQKEGDTKDKKDEEEDMSLD

kcat of ubiquitin-AMC hydrolysis by the UCH37/RPN13(Q337A,Q338A)^285-407 complex (human ubiquitin): 4.7 s⁻¹
B5: RPN13(Q337A,Q338A)^285-407 (domain or fragment, human)
chain: B4 chain with Q57A, Q58A

kcat of ubiquitin-AMC hydrolysis by the UCH37/NFRKB^1-156 complex [1]: 0.1 s⁻¹
kcat/Km of ubiquitin-AMC hydrolysis by the UCH37/NFRKB^1-156 complex [1]: 0.006 s^−1μM^−1
B6: NFRKB^1-156 (domain or fragment, human, UniProt Q6P4R8 1-156, looked up)
chain: MDSLDHMLTDPLELGPCGDGHGTRIMEDCLLGGTRVSLPEDLLEDPEIFFDVVSLSTWQEVLSDSQREHLQQFLPQFPEDSAEQQNELILALFSGENFRFGNPLHIAQKLFRDGHFNPEVVKYRQLCFKSQYKRYLNSQQQYFHRLLKQILASRSD

kcat of ubiquitin-AMC hydrolysis by the UCH37/NFRKB^1-156(^97GSGS^100) complex [1]: 5.94 s⁻¹
B7: NFRKB^1-156(^97GSGS^100) (domain or fragment, human, UniProt Q6P4R8 1-156, looked up)
chain: B6 chain with N97G, F98S, R99G, F100S
